Assay results from the RNAGym collection of RNA variant scans (doi:10.7554/elife.90254).

B1: LINE1-full (parent)
chain: UACGUAGGUGGUUUUCCCCUGAUAGUGCUAAGGGGGCCUGGAAGUUUGGACUGGGCAGAGCUCAACACAGCGUGGCAAAGUGGCUGUGGCUAGACUGCCUCUCUGGAUUCCUCGUCACUCAGCAGGGCAUCUCUGAGAGAAAUGCC

Variants of: B1
Experiment: self-cleavage, relative activity (ratio to wild type); higher = more cleavage; in vitro, sequencing; the parent is a self-cleaving ribozyme

Row | Variant | self-cleavage
1 | U100C G126C | 2.64
2 | C101A U134G | 1.8
3 | U109C A129U | 1.97
4 | U109C A129G | 1.3
5 | U102C C110U | 1.78
6 | U108A U130C | 1.51
7 | U100C U112A | 1.74
8 | U100C C123U | 2.06
9 | U104A U130C | 1.51
10 | U109A U119C | 1.95
11 | U102C G114U | 1.62
12 | U102C G114A | 1.21
13 | U100G A136G | 0.59
14 | C101U U130C | 1.54
15 | U104A A124U | 1.25
16 | U102A A124G | 1.08
17 | C103U A107U | 1.2
18 | U100C U132A | 2.37
19 | U104A U134C | 1.53
20 | U104A U134A | 1.35
21 | U100C A138G | 1.83

Row | Variant | self-cleavage
22 | U109A C145G | 0.98
23 | U102A A117G | 1.31
24 | U102A A117U | 1.37
25 | U104A A142G | 1.43
26 | U108C U115A | 1.86
27 | C103U U109C | 0.53
28 | U100C U102A | 1.95
29 | U109C A140G | 0.48
30 | U104A | 1.14
31 | U104C | 1.65
32 | U104G | 1.19
33 | A107U G144A | 1.79
34 | G106U A129G | 0.98
35 | U102C A140U | 1.48
36 | U102C A140G | 1.45
37 | U102C G122U | 1.63
38 | U108A C133A | 1.42
39 | U109A | 1.31
40 | U109C | 1.2
41 | A107G G127A | 1.81
42 | A107G G127C | 1.72

Row | Variant | self-cleavage
43 | U102A U134A | 1.06
44 | G106A U109C | 1.86
45 | U108C U119A | 1.53
46 | C101U G114A | 1.37
47 | C103U A124G | 1.56
48 | C103A G135A | 0.87
49 | U108C A138U | 1.68
50 | U108A A140G | 1.58
51 | G105U U108A | 1.12
52 | G105U U108C | 1.98
53 | U104C G144A | 2.03
54 | U108C C118U | 2.01
55 | U104A U119C | 1.47
56 | U104A U119G | 0.64
57 | U102C U109A | 1.31
58 | A107G U130A | 1.74
59 | A107G U130G | 1.15
60 | U104C U143A | 1.56
61 | U104C U143C | 2.1
62 | U102C A129U | 1.22
63 | C103A A140G | 1.23

Row | Variant | self-cleavage
64 | U108C A124U | 1.81
65 | U108C A124G | 1.47
66 | U102C A121U | 2.05
67 | U104A A129G | 1.27
68 | U108C G126A | 2.16
69 | A107G A142G | 1.83
70 | U102A G127A | 1.08
71 | U108A U134C | 1.19
72 | C103U A138U | 1.07
73 | C103U A138G | 1.49
74 | U108A U119A | 0.96
75 | U108A U119C | 1.41
76 | C103U A136G | 1.39
77 | U102C A117U | 1.07
78 | U102C A117G | 1.6
79 | U104A C116A | 1.11
80 | U104A C146U | 1.35
81 | U104C C123A | 1.73
82 | C103A A138G | 1.6
83 | U104A U108C | 1.14
84 | U100C U134C | 2.01
